Values of other authors in paper PMC2164963.

Biological target: EBNA-1 (Epstein-Barr virus) (UniProt P03211)

EBNA-1 (from UniProt P03211)
Kd: 1 nM
